From patent US7422862B2, “Methods for identifying modulators of apoptosis” (The Burnham Institute, priority 2001, dated 2008)

Tests used:
Assay in all cases: Co-immunoprecipitation with Bcl-2 family proteins in HEK293T cells
Type in all cases: binding
[1] = target: T1, Bak (Homo sapiens, UniProt Q16611); design: expressed in transfected cells; host or cells: HEK293T
T1 sequence (Q16611 1-211): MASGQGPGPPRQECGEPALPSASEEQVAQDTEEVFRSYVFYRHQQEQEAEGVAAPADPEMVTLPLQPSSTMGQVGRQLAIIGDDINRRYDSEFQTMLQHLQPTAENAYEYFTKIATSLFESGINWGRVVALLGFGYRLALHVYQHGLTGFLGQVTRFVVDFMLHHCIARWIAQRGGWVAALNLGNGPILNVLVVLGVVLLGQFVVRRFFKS
Description: (§1) (A) HEK293T cells were transfected with pcDNA3-myc plasmids encoding Bax or other Bcl-2 family proteins with GFP, GFP-HN, or GFP-HN(C8P). Cell lysates were immunoprecipitated with polyclonal anti-GFP antibody. The immunoprecipitates or the lysates were blotted with anti-myc or anti-GFP antibodies, respectively. The slower migrating form of GFP seen in lane 1 (asterisk)represents an alternative form of GFP produced from the wild-type (control) p-EGFP-Cl plasmid (http://clonotech.com). (B) Testes of three-week-old mice were homogenized in lysis buffer (0.1% Triton X-100, 50 mM Tris-HCl, pH7.5, 1 mM EDTA, plus protease inhibitor cocktail). The lysates were immunoprecipitated with control rabbit serum or polyclonal anti-mouse Bax antibody. The immunoprecipitates or the lysates were subjected to electrophoresis in Tris/Tricine gels (16% T, 3% C), electroblotted to PVDF membrane, and immunoblotted with polyclonal anti-HN antibody or monoclonal anti-Bax antibody 6A7 (Trevigen). (C) The affinity (Kd) of Bax/HN interaction was measured by fluorescence polarization assay, using various concentrations of purified recombinant Bax and 40 nM rhodamine-conjugated HN peptide. Control peptide from CD40 is also shown (mean +Std Dev; n=3).
Furthermore, multiple Bcl-2 family proteins were surveyed for interactions with Humanin by coimmunoprecipitation experiments (FIG. 5A). […]

[2] = target: T2, Bok (Homo sapiens, UniProt Q9UMX3)
T2 construct: expressed in transfected cells; host or cells: HEK293T
T2 sequence (Q9UMX3 1-212): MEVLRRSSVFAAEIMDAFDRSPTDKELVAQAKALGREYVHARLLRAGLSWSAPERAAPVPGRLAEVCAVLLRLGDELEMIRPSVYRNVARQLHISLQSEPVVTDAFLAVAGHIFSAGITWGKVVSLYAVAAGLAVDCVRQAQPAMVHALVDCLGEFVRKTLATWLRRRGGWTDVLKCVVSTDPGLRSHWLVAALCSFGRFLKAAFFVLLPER
Description: as §1
(§2) Furthermore, multiple Bcl-2 family proteins were surveyed for interactions with Humanin by coimmunoprecipitation experiments (FIG. 5A).
(§3) Immunoblotting and immunoprecipitations were performed as follows. Immunoblotting was performed as described previously (Fields and Song, Nature 340:245-246 (1989)). For co-immunoprecipitations, cells were cultured in 50 uM […] Valine Alanine Asparate fluoromethyl-ketone (zVAD-fmk) to prevent apoptosis. Cells were suspended in lysis buffer (50 mM Tris-HCl, pH7.4; 150 mM NaCl; 20 mM EDTA; 50 mM NaF; 0.5% NP-40; 0.1 mM Na3VO4; 20 ug/ml Leupeptin; 20 ug/ml Aprotinin; 1 mM DTT; and 1 mM PMSF). Lysates (200 ul diluted in 1 ml final volume of lysis buffer) were cleared by incubation with 15 ul of protein G-Sepharose 4B (Zymed) and then incubated with 15 ul of polyclonal antibody and 15 ul of protein G at 4° C. overnight. Beads were then washed 4 times with 1.5 mls lysis buffer before boiling in Laemmli sample buffer and performing SDS-PAGE/immunoblotting.

[3] = target: Bcl-XL (Homo sapiens, UniProt Q07817)
Description: as §1, §2, §3

[4] = target: Bcl-2 (Homo sapiens, UniProt P10415)
Description: as §1, §2, §3

[5] = target: Mcl-1 (Homo sapiens, UniProt Q07820)
Description: as §1, §2, §3

[6] = target: T3, Bcl-B (Homo sapiens, UniProt Q9HD36)
T3 construct: expressed in transfected cells; host or cells: HEK293T
T3 sequence (Q9HD36 1-204): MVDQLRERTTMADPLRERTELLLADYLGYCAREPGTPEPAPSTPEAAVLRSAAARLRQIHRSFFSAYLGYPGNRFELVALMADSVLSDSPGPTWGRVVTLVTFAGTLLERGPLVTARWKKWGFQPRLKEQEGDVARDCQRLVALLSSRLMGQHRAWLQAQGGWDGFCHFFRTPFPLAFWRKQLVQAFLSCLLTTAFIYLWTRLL
Description: as §1, §2, §3

Chain of Mcl-1 (Q07820 whole entry, species assumed): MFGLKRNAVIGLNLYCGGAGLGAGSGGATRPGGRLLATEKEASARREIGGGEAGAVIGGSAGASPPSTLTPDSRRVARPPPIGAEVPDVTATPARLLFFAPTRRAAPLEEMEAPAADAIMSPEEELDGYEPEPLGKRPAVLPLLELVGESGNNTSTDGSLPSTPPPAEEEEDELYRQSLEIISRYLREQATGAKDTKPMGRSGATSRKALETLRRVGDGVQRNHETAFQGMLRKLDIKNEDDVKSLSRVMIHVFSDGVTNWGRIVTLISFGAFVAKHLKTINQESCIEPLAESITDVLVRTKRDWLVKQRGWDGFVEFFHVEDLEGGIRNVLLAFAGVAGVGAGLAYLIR
Chain of Bcl-2 (P10415 whole entry, species assumed): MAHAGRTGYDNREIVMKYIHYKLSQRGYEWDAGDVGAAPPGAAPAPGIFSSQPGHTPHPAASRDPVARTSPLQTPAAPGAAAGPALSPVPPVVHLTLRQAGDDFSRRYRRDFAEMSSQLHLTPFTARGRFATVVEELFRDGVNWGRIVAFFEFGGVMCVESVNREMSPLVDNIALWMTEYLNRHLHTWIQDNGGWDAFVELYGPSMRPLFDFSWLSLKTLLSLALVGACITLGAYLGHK
Chain of Bcl-XL (Q07817 whole entry, species assumed): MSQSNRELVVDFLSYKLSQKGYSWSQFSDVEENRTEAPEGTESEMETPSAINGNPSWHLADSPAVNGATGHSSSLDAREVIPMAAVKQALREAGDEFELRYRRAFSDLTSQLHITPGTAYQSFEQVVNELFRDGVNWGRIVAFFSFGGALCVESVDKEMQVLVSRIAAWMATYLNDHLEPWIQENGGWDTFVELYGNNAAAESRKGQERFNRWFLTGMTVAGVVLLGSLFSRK

GFP-HN: Wild-type full-length Humanin fused to Green Fluorescent Protein
did not co-immunoprecipitate: co-immunoprecipitation with Bak [1] | co-immunoprecipitation with Bok [2] | co-immunoprecipitation with Bcl-XL [3] | co-immunoprecipitation with Bcl-2 [4] | co-immunoprecipitation with Mcl-1 [5] | co-immunoprecipitation with Bcl-B [6]
